Target: rhVEGF165 (human, UniProt P15692 27-191, limits assumed)
Assay: cell-based or functional assay

Chain of rhVEGF165 (P15692 other isoform, or with tags, fused parts or gaps limits assumed): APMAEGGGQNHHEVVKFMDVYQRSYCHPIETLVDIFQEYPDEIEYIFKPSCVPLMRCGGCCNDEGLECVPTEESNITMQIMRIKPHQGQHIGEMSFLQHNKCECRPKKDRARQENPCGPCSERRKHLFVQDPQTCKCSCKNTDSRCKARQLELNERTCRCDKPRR

- potency in inhibiting VEGF-induced HuVEC growth ([3H]-thymidine), relative to Y0192 Fab: 30 fold
B1: Y0313-1 (Fab, V domains shown)
VH: EVQLVESGGGLVQPGGSLRLSCAASGYDFTHYGMNWVRQAPGKGLEWVGWINTYTGEPTYAADFKRRFTFSLDTSKSTAYLQMNSLRAEDTAVYYCAKYPYYYGTSHWYFDVWGQGTL
VL: DIQLTQSPSSLSASVGDRVTITCRANEQLSNYLNWYQQKPGKAPKVLIYFTSSLHSGVPSRFSGSGSGTDFTLTISSLQPEDFATYYCQQYSTVPWTFGQGTKVEIKR
